Data published in IntAct's records for PubMed 24351927.

Legend:
[1] = molecular target: 1433g_rat Ywhag (UniProt P61983)
[2] = molecular target: 1433z_human YWHAZ (UniProt P63104)
[3] = molecular target: 1433t_human YWHAQ (UniProt P27348)
[4] = molecular target: 1433g_rat Ywhag (UniProt P61983); remark: listed apart in the source

Chain of UniProt P61983 (P61983 whole entry): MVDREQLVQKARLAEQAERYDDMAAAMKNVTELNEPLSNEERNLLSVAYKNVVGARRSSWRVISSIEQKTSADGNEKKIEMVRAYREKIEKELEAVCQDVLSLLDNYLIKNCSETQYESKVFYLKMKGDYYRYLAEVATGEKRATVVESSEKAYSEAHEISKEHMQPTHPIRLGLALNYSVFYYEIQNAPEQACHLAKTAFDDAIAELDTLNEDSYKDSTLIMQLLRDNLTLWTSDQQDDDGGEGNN
Chain of UniProt P27348 (P27348 whole entry): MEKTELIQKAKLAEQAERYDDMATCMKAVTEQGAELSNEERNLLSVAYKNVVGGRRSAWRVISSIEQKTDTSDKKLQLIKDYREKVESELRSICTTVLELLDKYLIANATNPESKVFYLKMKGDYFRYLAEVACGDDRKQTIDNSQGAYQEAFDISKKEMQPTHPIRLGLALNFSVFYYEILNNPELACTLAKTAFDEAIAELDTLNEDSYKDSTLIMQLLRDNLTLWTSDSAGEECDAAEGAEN
Chain of UniProt P63104 (P63104 whole entry): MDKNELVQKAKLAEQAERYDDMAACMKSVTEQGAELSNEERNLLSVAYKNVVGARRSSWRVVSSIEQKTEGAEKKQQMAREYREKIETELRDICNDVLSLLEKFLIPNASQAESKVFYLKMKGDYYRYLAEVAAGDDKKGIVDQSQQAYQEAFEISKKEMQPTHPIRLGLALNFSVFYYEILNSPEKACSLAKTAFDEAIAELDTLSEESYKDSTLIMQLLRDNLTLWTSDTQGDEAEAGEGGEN

Row | Substance | effect of a mutation on the interaction [1] | effect of a mutation on the interaction [2] | effect of a mutation on the interaction [3] | effect of a mutation on the interaction [4]
1 | Leucine-rich repeat serine/threonine-protein kinase 2 (Homo sapiens), Q5S007 R1441G | disrupting interaction | disrupting interaction | disrupting interaction | 
2 | Leucine-rich repeat serine/threonine-protein kinase 2 (Homo sapiens), Q5S007 S1443A;S1444A |  |  |  | disrupting interaction
3 | Leucine-rich repeat serine/threonine-protein kinase 2 (Homo sapiens), Q5S007 S1444A |  | disrupting interaction | disrupting interaction | disrupting interaction
